B1: Kinesin-like protein KIF16B, residues 1213 to 1273; numbered along this chain, Q96L93 (parent)
chain: ETWTVFRRYSRFREMHKTLKLKYAELAALEFPPKKLFGNKDERVIAERRSHLEKYLRDFFS

The text below walks through data of the Human Domainome abundance scans (Beltran et al. 2025).

± gives the uncertainty stated by the source.

In the data set the parent is B1. The data set can be described thus: abundance fitness (aPCA) (normalised: wild type 0, dead -1); higher = more abundant; growth selection in yeast, the domain comes from the species named. The conditions noted are these: Homo sapiens.
In the case of ETWTVFRRYSRFREMHQTLKLKYAELAALEFPPKKLFGNKDERVIAERRSHLEKYLRDFFS [K17Q], the abundance fitness is -0.452 ± 0.12.

Consider ETWTVFRRYSRFREMHMTLKLKYAELAALEFPPKKLFGNKDERVIAERRSHLEKYLRDFFS [K17M], for which the abundance fitness was -0.343 ± 0.1.

For ETWTVFRRYSRFREMHRTLKLKYAELAALEFPPKKLFGNKDERVIAERRSHLEKYLRDFFS [K17R], the abundance fitness is -0.199 ± 0.057. For ETWTVFRRYSRFREMHYTLKLKYAELAALEFPPKKLFGNKDERVIAERRSHLEKYLRDFFS [K17Y] the value was -0.607 ± 0.13. For ETWTVFRRYSRFREMHFTLKLKYAELAALEFPPKKLFGNKDERVIAERRSHLEKYLRDFFS [K17F] the value was -0.685 ± 0.27; for ETWTVFRRYSRFREMHATLKLKYAELAALEFPPKKLFGNKDERVIAERRSHLEKYLRDFFS [K17A], -0.325 ± 0.13. For ETWTVFRRYSRFREMHLTLKLKYAELAALEFPPKKLFGNKDERVIAERRSHLEKYLRDFFS [K17L] the value was -1 ± 0.22; for ETWTVFRRYSRFREMHWTLKLKYAELAALEFPPKKLFGNKDERVIAERRSHLEKYLRDFFS [K17W], -0.783 ± 0.29; for ETWTVFRRYSRFREMHVTLKLKYAELAALEFPPKKLFGNKDERVIAERRSHLEKYLRDFFS [K17V], -0.225 ± 0.13. Turning to ETWTVFRRYSRFREMHETLKLKYAELAALEFPPKKLFGNKDERVIAERRSHLEKYLRDFFS [K17E], the abundance fitness is -0.311 ± 0.095.

In the case of ETWTVFRRYSRFREMHTTLKLKYAELAALEFPPKKLFGNKDERVIAERRSHLEKYLRDFFS [K17T], the abundance fitness is -0.489 ± 0.14. For ETWTVFRRYSRFREMHCTLKLKYAELAALEFPPKKLFGNKDERVIAERRSHLEKYLRDFFS [K17C] the value was -0.483 ± 0.16; for ETWTVFRRYSRFREMHKTLNLKYAELAALEFPPKKLFGNKDERVIAERRSHLEKYLRDFFS [K20N], -1.01 ± 0.24; for ETWTVFRRYSRFREMHKTLWLKYAELAALEFPPKKLFGNKDERVIAERRSHLEKYLRDFFS [K20W], -0.734 ± 0.18. For ETWTVFRRYSRFREMHKTLGLKYAELAALEFPPKKLFGNKDERVIAERRSHLEKYLRDFFS [K20G] the value was -0.676 ± 0.11; for ETWTVFRRYSRFREMHKTLHLKYAELAALEFPPKKLFGNKDERVIAERRSHLEKYLRDFFS [K20H], -0.421 ± 0.41; for ETWTVFRRYSRFREMHKTLLLKYAELAALEFPPKKLFGNKDERVIAERRSHLEKYLRDFFS [K20L], -0.671 ± 0.097. For ETWTVFRRYSRFREMHKTLPLKYAELAALEFPPKKLFGNKDERVIAERRSHLEKYLRDFFS [K20P] the value was -0.904 ± 0.21; for ETWTVFRRYSRFREMHKTLMLKYAELAALEFPPKKLFGNKDERVIAERRSHLEKYLRDFFS [K20M], -0.746 ± 0.15. ETWTVFRRYSRFREMHKTLELKYAELAALEFPPKKLFGNKDERVIAERRSHLEKYLRDFFS [K20E]: the abundance fitness is -1.02 ± 0.19. Regarding ETWTVFRRYSRFREMHKTLYLKYAELAALEFPPKKLFGNKDERVIAERRSHLEKYLRDFFS [K20Y], the abundance fitness is -1 ± 0.26.

For ETWTVFRRYSRFREMHKTLDLKYAELAALEFPPKKLFGNKDERVIAERRSHLEKYLRDFFS [K20D], the abundance fitness is -0.945 ± 0.24. For ETWTVFRRYSRFREMHKTLCLKYAELAALEFPPKKLFGNKDERVIAERRSHLEKYLRDFFS [K20C] the value was -0.574 ± 0.27; for ETWTVFRRYSRFREMHKTLQLKYAELAALEFPPKKLFGNKDERVIAERRSHLEKYLRDFFS [K20Q], -0.411 ± 0.17; for ETWTVFRRYSRFREMHKTLVLKYAELAALEFPPKKLFGNKDERVIAERRSHLEKYLRDFFS [K20V], -0.853 ± 0.096. ETWTVFRRYSRFREMHKTLALKYAELAALEFPPKKLFGNKDERVIAERRSHLEKYLRDFFS [K20A]: the abundance fitness is -0.632 ± 0.1. As to ETWTVFRRYSRFREMHKTLRLKYAELAALEFPPKKLFGNKDERVIAERRSHLEKYLRDFFS [K20R], the abundance fitness was -0.211 ± 0.059.

In the case of ETWTVFRRYSRFREMHKTLKLDYAELAALEFPPKKLFGNKDERVIAERRSHLEKYLRDFFS [K22D], the abundance fitness is -0.907 ± 0.37. As for ETWTVFRRYSRFREMHKTLKLAYAELAALEFPPKKLFGNKDERVIAERRSHLEKYLRDFFS [K22A], the abundance fitness was -0.168 ± 0.09.

ETWTVFRRYSRFREMHKTLKLGYAELAALEFPPKKLFGNKDERVIAERRSHLEKYLRDFFS [K22G]: the abundance fitness was -0.454 ± 0.072. Next, ETWTVFRRYSRFREMHKTLKLEYAELAALEFPPKKLFGNKDERVIAERRSHLEKYLRDFFS [K22E]: -0.77 ± 0.3. For ETWTVFRRYSRFREMHKTLKLLYAELAALEFPPKKLFGNKDERVIAERRSHLEKYLRDFFS [K22L] the value was 0.127 ± 0.055; for ETWTVFRRYSRFREMHKTLKLCYAELAALEFPPKKLFGNKDERVIAERRSHLEKYLRDFFS [K22C], -0.222 ± 0.12. As to ETWTVFRRYSRFREMHKTLKLIYAELAALEFPPKKLFGNKDERVIAERRSHLEKYLRDFFS [K22I], the abundance fitness was 0.069 ± 0.095.

As for ETWTVFRRYSRFREMHKTVKLKYAELAALEFPPKKLFGNKDERVIAERRSHLEKYLRDFFS [L19V], the abundance fitness was -0.656 ± 0.1. Next, ETWTVFRRYSRFREMHKTQKLKYAELAALEFPPKKLFGNKDERVIAERRSHLEKYLRDFFS [L19Q]: -0.991 ± 0.24. As to ETWTVFRRYSRFREMHKTGKLKYAELAALEFPPKKLFGNKDERVIAERRSHLEKYLRDFFS [L19G], the abundance fitness is -0.977 ± 0.14. Next, ETWTVFRRYSRFREMHKTTKLKYAELAALEFPPKKLFGNKDERVIAERRSHLEKYLRDFFS [L19T]: -0.844 ± 0.19. Next, ETWTVFRRYSRFREMHKTKKLKYAELAALEFPPKKLFGNKDERVIAERRSHLEKYLRDFFS [L19K]: -0.999 ± 0.16; ETWTVFRRYSRFREMHKTPKLKYAELAALEFPPKKLFGNKDERVIAERRSHLEKYLRDFFS [L19P]: -1.02 ± 0.24; ETWTVFRRYSRFREMHKTAKLKYAELAALEFPPKKLFGNKDERVIAERRSHLEKYLRDFFS [L19A]: -0.737 ± 0.29. Next, ETWTVFRRYSRFREMHKTMKLKYAELAALEFPPKKLFGNKDERVIAERRSHLEKYLRDFFS [L19M]: 0.144 ± 0.095; ETWTVFRRYSRFREMHKTEKLKYAELAALEFPPKKLFGNKDERVIAERRSHLEKYLRDFFS [L19E]: -0.917 ± 0.23.
